US20240409647A1 (SINOMAB BIOSCIENCE, published 2024)

Key:
[1] = target: T1, human IL-17 receptor subunit E (human, UniProt Q8NFR9 24-454, limits assumed); test: ELISA, coated receptor; SM17 at 0.016 µg/mL; well 2
T1 construct: also called hIL17RE
T1 sequence (looked up): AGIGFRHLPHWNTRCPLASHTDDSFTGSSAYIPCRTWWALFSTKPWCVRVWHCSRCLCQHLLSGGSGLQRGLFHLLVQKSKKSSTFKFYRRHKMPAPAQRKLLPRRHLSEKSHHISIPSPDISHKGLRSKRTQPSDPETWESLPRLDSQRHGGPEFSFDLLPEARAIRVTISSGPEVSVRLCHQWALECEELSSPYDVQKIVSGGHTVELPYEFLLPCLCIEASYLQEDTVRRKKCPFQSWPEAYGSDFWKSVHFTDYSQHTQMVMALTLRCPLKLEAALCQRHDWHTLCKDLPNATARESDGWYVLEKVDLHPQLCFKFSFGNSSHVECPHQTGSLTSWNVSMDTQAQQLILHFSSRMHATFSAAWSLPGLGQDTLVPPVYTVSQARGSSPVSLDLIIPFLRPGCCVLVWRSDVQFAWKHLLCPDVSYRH

[2] = target: T2, human IL-17 receptor subunit C (human, UniProt Q8NAC3-2 21-467, limits assumed); test: as above
T2 construct: also called IL17RC; hIL17RC
T2 sequence (looked up): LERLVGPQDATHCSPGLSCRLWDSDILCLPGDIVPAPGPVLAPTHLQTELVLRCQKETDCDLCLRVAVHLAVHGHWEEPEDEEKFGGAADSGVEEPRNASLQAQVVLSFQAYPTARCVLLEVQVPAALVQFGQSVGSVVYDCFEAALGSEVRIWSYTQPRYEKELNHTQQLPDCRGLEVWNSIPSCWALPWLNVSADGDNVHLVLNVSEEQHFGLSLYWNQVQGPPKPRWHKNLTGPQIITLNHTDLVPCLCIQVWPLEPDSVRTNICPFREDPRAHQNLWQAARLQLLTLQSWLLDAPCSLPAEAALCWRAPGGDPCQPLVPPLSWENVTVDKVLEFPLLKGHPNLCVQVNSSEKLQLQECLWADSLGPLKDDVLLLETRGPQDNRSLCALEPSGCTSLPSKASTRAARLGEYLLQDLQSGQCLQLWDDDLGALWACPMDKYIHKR

[3] = target: T3, human IL-17 receptor subunit D (human, UniProt Q8NFM7 28-299, limits assumed); test: as above
T3 construct: also called IL17RD; hIL 17RD
T3 sequence (looked up): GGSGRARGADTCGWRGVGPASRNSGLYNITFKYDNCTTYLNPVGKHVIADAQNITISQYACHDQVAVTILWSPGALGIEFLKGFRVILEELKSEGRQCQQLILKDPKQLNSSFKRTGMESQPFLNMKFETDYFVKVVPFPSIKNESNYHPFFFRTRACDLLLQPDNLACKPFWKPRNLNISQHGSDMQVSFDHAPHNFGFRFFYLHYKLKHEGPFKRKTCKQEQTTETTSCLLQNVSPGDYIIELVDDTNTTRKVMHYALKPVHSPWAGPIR

[4] = target: T4, human IL-17 receptor subunit A (human, UniProt Q96F46 33-320); test: as above
T4 construct: also called IL17RA; hIL17RA

[5] = target: T5, human IL-17RB protein (recombinant, R&D systems) (human); test: as above
T5 construct: Bought protein; also called hIL17RB
T5 sequence (Q9NRM6 whole entry, looked up): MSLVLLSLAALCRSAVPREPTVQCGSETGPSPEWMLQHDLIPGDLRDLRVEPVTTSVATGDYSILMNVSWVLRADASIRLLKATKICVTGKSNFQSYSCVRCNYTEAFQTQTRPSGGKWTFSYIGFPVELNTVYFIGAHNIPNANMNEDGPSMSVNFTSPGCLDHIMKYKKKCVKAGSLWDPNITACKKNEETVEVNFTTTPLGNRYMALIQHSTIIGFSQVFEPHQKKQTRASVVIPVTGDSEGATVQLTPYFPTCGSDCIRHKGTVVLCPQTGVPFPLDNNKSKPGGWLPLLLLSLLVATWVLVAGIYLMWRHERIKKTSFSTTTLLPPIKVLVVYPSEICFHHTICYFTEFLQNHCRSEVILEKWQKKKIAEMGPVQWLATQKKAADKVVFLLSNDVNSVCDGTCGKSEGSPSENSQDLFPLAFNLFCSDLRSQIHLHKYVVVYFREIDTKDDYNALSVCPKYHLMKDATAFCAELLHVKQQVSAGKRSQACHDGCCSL

[6] = target: T1, human IL-17 receptor subunit E; test: ELISA, coated receptor; SM17 at 0.00064 µg/mL; well 2
[7] = target: T2, human IL-17 receptor subunit C; test: as above
[8] = target: T3, human IL-17 receptor subunit D; test: as above
[9] = target: T4, human IL-17 receptor subunit A; test: as above
[10] = target: T5, human IL-17RB protein (recombinant, R&D …); test: as above
[11] = target: T6, human IL-33 (R&D systems) (human, UniProt O95760 112-270); test: ELISA on coated human IL-33 (2 ug/mL), goat anti-human F(ab')2-HRP [panel 'Binding affinity to human IL-33']
T6 sequence (looked up): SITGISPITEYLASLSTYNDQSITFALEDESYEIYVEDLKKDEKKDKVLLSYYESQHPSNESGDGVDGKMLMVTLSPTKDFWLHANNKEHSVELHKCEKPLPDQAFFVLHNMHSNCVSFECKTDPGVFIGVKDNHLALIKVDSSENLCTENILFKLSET

[12] = target: T5, human IL-17RB protein (recombinant, R&D …); test: ELISA, coated receptor; SM17 at 0.4 µg/mL; well 2

OD 450 nm Absorption [1]: -0.04 OD450
OD 450 nm Absorption [2]: 0.02 OD450
OD 450 nm Absorption [3]: 0.02 OD450
OD 450 nm Absorption [4]: -0.04 OD450
OD 450 nm Absorption [5]: 0.3 OD450
OD 450 nm Absorption [6]: -0.16 OD450
OD 450 nm Absorption [7]: 0.08 OD450
OD 450 nm Absorption [8]: 0.02 OD450
OD 450 nm Absorption [9]: 0.05 OD450
OD 450 nm Absorption [10]: 0.07 OD450
binding result [11]: no binding
OD 450 nm Absorption [12]: 1.31 OD450
B1: SM17 (antibody, human IgG4 S228P, kappa, V domains shown)
VH: QVQLVQSGAEVKKPGASVKVSCKASGYTFISYWMNWVRQAPGQGLEWMGRIDPYDSEIQYNQKFKDRVTMTRDTSISTAYMELSRLRSDDTAVYYCARSGGFDWFAYWGQGTLVTVSS
VL: DIQMTQSPSSLSASVGDRVTITCRASENINSNLAWYQQKPGKAPKLLLYDVTNLADGVPSRFSGSGSGTDYTLTISSLQPEDFATYYCQHFWGPPYTFGGGTKVEIKR
notes: other paragraphs and claim 15 call the same entries VH and VL; also called humanized anti-IL17RB monoclonal antibody
